Patent publication US20230263832A1, “TARGETED DRUG DELIVERY TO SITES OF INTRAVASCULAR OCCLUSION” (Children's Medical Center Corporation, priority 2020, published 2023)

Tested on: RBC aggregates in SCD mouse liver
Assay: TNFα-induced vaso-occlusion in SCD mouse liver (LaSC, 3 parameters)
Type: in vivo
Settings: SS mice, TNFα 1 μg/mouse i.p. 1 h
Protocol: FIG. 12: Parameters of RBC aggregates were determined to quantitate vaso-occlusion in SCD mouse liver. SCD mice were injected with TNFα (1 μg/mouse; 1 h) to induce inflammatory vaso-occlusion, followed by CO2 euthanasia and PBS perfusion to flush unbound RBCs in the vasculature. The livers were harvested and fixed by PLP fixative, followed by cryosectioning and immunofluorescent staining with antibodies against Ter119 (for RBC marker), Endoglin (for sinusoidal vasculature), S100A8 (for neutrophils), and DAPI (for nuclei). Stained slides with fluorescent dye-labeled secondary antibodies were scanned on laser scan cytometry (LaSC), followed by quantitative imaging analysis (iCys software) to quantitate the # of RBC aggregates that are larger than 100 μm^2, total area of RBC aggregates, the # neutrophil-containing RBC aggregates by iCys software. Arrows indicate the neutrophil-containing RBC aggregate in liver sinusoid.
SCD SS and control AA mice were injected with or without TNFα (1 μg/mouse; 1 h) to induce inflammatory vaso-occlusion, followed by CO2 euthanasia and PBS perfusion to flush unbound RBCs in the vasculature. Immunofluorescent staining of liver cryosections was performed as described in FIG. 12 to produce LaSC images, which were subjected to quantitative imaging analysis of RBC aggregates for 3 parameters in SCD mouse livers (see FIG. 14).
From FIG. 13 LaSC scanning, cytometric events are defined by automatic image segmentation on specific channels by iCys software to quantitate # of RBC aggregate, total area of RBC aggregates, # of neutrophil-containing RBC aggregates by iCys software (Park et al. 2020). […]
(FIG. 15A) Representative images show the increased RBC aggregates upon TNFα injection in SCD mouse liver. (FIG. 15B) This was followed by quantitative imaging analysis (iCys software) to quantitate # of RBC aggregate, total area of RBC aggregates, # of neutrophil-containing RBC aggregates by iCys software. […]

TNFα
increase of # of RBC aggregates: 51% | increase of # of neutrophil-containing RBC aggregates: 182% | increase of total area of RBC aggregates: 59%
